This series concerns the target human serum albumin (HSA) (Homo sapiens, UniProt P02768 25-609). Description: graphene oxide fluorescence recovery (aptamer release from GO); GO-aptamer complex, PBS pH 7.4, HSA 0.001-1.5 mg/mL; LOD 0.203 ug/mL, no Kd; PBS pH 7.4, room temperature; 15 uL of 5 uM Cy5-H8 + 85 uL GO-PBS (15 uL of 5 mg/mL GO in 70 uL PBS) 5 min in the dark, then 100 uL HSA for 30 min; also artificial urine. The note with it: protein: commercial; label: 5'-Cy5.

Chain of human serum albumin (HSA) (P02768 25-609): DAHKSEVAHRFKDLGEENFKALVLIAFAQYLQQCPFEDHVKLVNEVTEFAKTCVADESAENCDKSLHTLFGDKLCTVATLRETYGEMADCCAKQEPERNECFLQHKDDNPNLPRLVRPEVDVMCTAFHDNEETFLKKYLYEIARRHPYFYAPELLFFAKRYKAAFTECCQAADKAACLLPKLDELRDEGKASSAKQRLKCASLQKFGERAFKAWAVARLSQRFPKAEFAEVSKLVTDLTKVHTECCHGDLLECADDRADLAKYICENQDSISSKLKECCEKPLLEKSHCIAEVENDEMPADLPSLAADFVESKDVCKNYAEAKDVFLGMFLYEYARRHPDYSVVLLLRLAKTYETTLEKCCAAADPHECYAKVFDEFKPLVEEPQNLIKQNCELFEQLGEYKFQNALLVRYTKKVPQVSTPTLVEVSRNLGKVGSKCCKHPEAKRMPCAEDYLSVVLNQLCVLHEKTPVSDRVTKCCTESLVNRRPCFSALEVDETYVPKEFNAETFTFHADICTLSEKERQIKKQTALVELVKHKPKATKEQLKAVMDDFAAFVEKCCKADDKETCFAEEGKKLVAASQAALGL

B1: H8 albumin aptamer (ssDNA)
DNA: ATACCAGCTTATTCAATTCCCCCGGCTTTGGTTTAGAGGTAGTTGCTCATTACTTGTACGCTCCGGATGAGATAGTAAGTGCAATCT
On to B1, for which the binding result was “binds”.

Source of the values: paper PMC10526137, “Development of a High-Accuracy, Low-Cost, and Portable Fluorometer with Smartphone Application for the Detection of Urinary Albumin towards the Early Screening of Chronic Kidney and Renal Diseases”.
